According to patent publication US20130171217A1, “ENZYMATIC PERACID GENERATION FOR USE IN SKIN CARE PRODUCTS” (E I DU PONT DE NEMOURS AND COMPANY, priority 2010, published 2013):

What was measured:
[1] = Two-step treatment of hair tresses, color loss ΔE; conditions: 2500 μg/mL (E/H 10), 20 min/cycle, 1 cycle
[2] = One-step procedure on hair tresses, hair color loss ΔE
Experimental: The hair tresses in these examples were cut from the stock medium brown hair swatches that were custom made by International Hair Importers (Glendale, N.Y.). Each hair tress was glued at one end, and cut at 5 mm width and 4 cm long (excluding the glued portion), with 100+/−20 mg net hair weight. For each test condition, triplicates of hair tresses were used. In the one-step procedure, each hair tress was placed in a clean plastic weighing tray (VWR, Cat. #12577-053), then 1 mL of the perhydrolase HC1121 solution in a buffer was applied to the hair tress, and was rubbed into the hair tress with an applicator. Then calculated amount of triacetin and 30% H2O2 were applied onto each hair tress and rubbed into the hair tress which gave 200 mM triacetin and 100 mM H2O2. The hair tress sat in this reaction mixture for 30 min, before being washed thoroughly with tap water followed by paper towel dry. This completed a 30 min treatment cycle. The treatment cycle was repeated 16 times. Hair tress became lighter-colored and weakened during the treatment. After final rinse and air-drying, tensile strength tests as described in Example 25 were conducted on each hair tress to quantify hair weakening. In addition, L*, a*, b* color measurements were taken for each hair sample to quantify hair color loss, and L*, a*, b* color measurements were also taken for untreated hair as a reference for ΔE color difference calculations. ΔE was calculated in the standard way as ΔE=((L*−L*ref)^2+(a*−a*ref)^2+(b*−b*ref)^2)^0.5. […] At pH 6, when 30 μg/mL HC1121 was used which gave 0.3 μg/mg hair E/H ratio, the tensile strength of treated hair tress reduced to 1.9 N/mg hair, approaching 1.5 N/mg hair, the benchmark strength of hair treated with NAIR® cream for 5 min. At pH 7, when 30 μg/mL HC1121 was used, the tensile strength of treated hair tress was 0.3 N/mg hair, much less than the 1.5 N/mg hair benchmark. Therefore, proper concentration of enzyme at proper pH could weaken hair effectively. The measured hair color loss for treated hair tresses correlated well with the weakening of hair: the greater hair weakening, the greater hair color loss.
Hair tresses were treated using the same procedure as described in Example 40, except that SLES (sodium laurel ether sulfate, a common soap ingredient) wash step was added before tap water rinse step each cycle to imitate daily shower in real life, where 1 mL 1% SLES (“RHODAPEX ES 2K” by Rhodia Inc., Cranbury, N.J.) was transferred onto hair tress and the hair tress was rubbed with gloved hand on the palm for 30 seconds. The treatment parameters for this example (enzyme concentration, pH and buffer concentration, and treatment cycle time) were shown in Table 34. For the 24 hr treatment cycle, the hair tress sat in the mixture for 1 hr before being taken out to a dry dish. The hair tress sat dry for 23 hr before being washed with 1 mL 1% SLES followed by tap water rinse and paper towel dry. For the 30 min treatment cycles, the treatment cycle was repeated 16 times. […] After final rinse and air-drying for each hair tress, tensile strength test and color measurement as described in Example 40 were conducted on each hair tress to quantify hair weakening and hair color loss. […] Hair tensile strength ranged from 0.3 to 0.8 N/mg hair, much less than the 1.5 N/mg hair tensile strength benchmark. Stronger hair weakening occurred at higher buffer concentration and longer treatment time. […] Therefore, it was anticipated that even lower enzyme concentration could be used to reach benchmark hair weakening at slightly higher pH (pH 6.6 compared to pH 6 in Example 40), higher buffer concentration and longer treatment time.
Hair tresses were treated using the same procedure for 24 hr treatment cycles as described in Example 41 using 10 μg/mL HC1121 at pH 6.6 and substrates at various concentrations. […]

B1: C277S-HC263: C277S variant of Thermotoga maritima perhydrolase fused via a flexible linker to hair-binding domain HC263 (protein)
chain: MAFFDLPLEELKKYRPERYEEKDFDEFWEETLAESEKFPLDPVFERMESHLKTVEAYDVTFSGYRGQRIKGWLLVPKLEEEKLPCVVQYIGYNGGRGFPHDWLFWPSMGYICFVMDTRGQGSGWLKGDTPDYPEGPVDPQYPGFMTRGILDPRTYYYRRVFTDAVRAVEAAASFPQVDQERIVIAGGSQGGGIALAVSALSKKAKALLCDVPFLCHFRRAVQLVDTHPYAEITNFLKTHRDKEEIVFRTLSYFDGVNFAARAKIPALFSVGLMDNISPPSTVFAAYNYYAGPKEIRIYPYNNHEGGGSFQAVEQVKFLKKLFEKGGPGSGGAGSPGSAGGPGSPSAQSQLPDKHSGLHERAPQRYGPEPEPEPEPIPEPPKEAPVVIEKPKPKPKPKPKPPAHDHKNQKETHQRHAAGSGGGGSPHHHHHH
Question: With B1 as the molecule, how does the “ΔE of color loss” value [1] read?
Answer: 2

Question: And the “Hair color loss avg ΔE” value ([2]; 10 μg/mL HC1121, pH 6.6, 50 mM phosphate, 200 mM TA/100 mM H2O2, 24 hr/cycle, 8 cycles)?
Answer: 13.8

Question: And the “Hair color loss avg ΔE” value ([2]; 10 μg/mL HC1121, pH 6.6, 50 mM phosphate, 200 mM TA/200 mM H2O2, 24 hr/cycle, 8 cycles)?
Answer: 16.7

Question: And the “Hair color loss avg ΔE” value ([2]; 10 μg/mL HC1121, pH 6.6, 50 mM phosphate, 200 mM TA/300 mM H2O2, 24 hr/cycle, 8 cycles)?
Answer: 20.1

Question: What about the “Hair color loss avg ΔE” value ([2]; 10 μg/mL HC1121, pH 6.6, 50 mM phosphate, 200 mM TA/500 mM H2O2, 24 hr/cycle, 8 cycles) of the same molecule?
Answer: 21.8

Question: And the “Hair color loss avg ΔE” value ([2]; 10 μg/mL HC1121, pH 6.6, 50 mM phosphate, 500 mM TA/500 mM H2O2, 24 hr/cycle, 8 cycles)?
Answer: 22.3

Question: And the “Hair color loss avg ΔE” value ([2]; one-step, 5 μg/mL enzyme, pH 6, 30 min × 16)?
Answer: 5.2

Question: And the “Hair color loss avg ΔE” value ([2]; one-step, 15 μg/mL enzyme, pH 6, 30 min × 16)?
Answer: 6.8

Question: What about the “Hair color loss avg ΔE” value ([2]; one-step, 30 μg/mL enzyme, pH 6, 30 min × 16) of the same molecule?
Answer: 8.7

Question: What about the “Hair color loss avg ΔE” value ([2]; one-step, 30 μg/mL enzyme, pH 7, 30 min × 16) of the same molecule?
Answer: 16.6

Question: What about the “Hair color loss avg ΔE” value ([2]; one-step, pH 6.6, 50 mM buffer, 30 min/cycle X 16 cycles, SLES wash each cycle) of the same molecule?
Answer: 17.7

Question: And the “Hair color loss avg ΔE” value ([2]; one-step, pH 6.6, 50 mM buffer, 24 hr/cycle X 7 cycles, SLES wash each cycle)?
Answer: 15.6

Question: And the “Hair color loss avg ΔE” value ([2]; one-step, pH 6.6, 100 mM buffer, 30 min/cycle X 16 cycles, SLES wash each cycle)?
Answer: 24.2
